“And” between values parts separate entries of the source, which are not always exact repeats. Equal values may be shown once. “Also recorded” adds a separate entry of the source.
Columns and labels:
[1] = tested on: STAT3 phosphorylation (Tyr705), IL23R + IL12Rβ1; assay: Phospho-STAT3 AlphaLISA Surefire Ultra assay, wildtype IL23R; assay type: cell-based, human; details: for Individual experimental means, phospho-STAT3 signal (Figure 6 panel b): IL-23 (5nM)
From the text: (§1) To test this, we created untagged and NanoLuc tagged versions of IL23R with the C115Y mutation. […] Using an intra-receptor NanoBRET assay to measure the basal association of receptor subunits (as previously described in Lay et al.[24]), we discovered that the […] mutant still associated with a fluorescently labelled HaloTag (HT) tagged IL12Rβ1 construct although this was reduced by 50.1% from the level of association measured for wildtype IL23R, a reduction consistent with the protein’s reduced total and surface expression (Fig. 6e).
Data are mean ± SEM from five or six (untagged) or three (NanoLuc tagged) independent experiments conducted in triplicate. For the IL23R + IL12Rβ1 data set, one outlier (11108.7) was detected using the Grubbs test (with alpha = 0.001) and removed from the statistical analysis. Statistical significance of the C115Y mutation on the alphaLISA data was assessed using a 2-way ANOVA with Tukey’s multiple comparison test. ***p < 0.001. The p value for the comparison of NL tagged construct response was 0.0001 and the p value for the comparison of untagged receptor was 0.951. c Luminescence signal measured when IL12Rβ1 was expressed with either NL-IL23R or the C115Y mutant. Data are mean ± SEM generated from the mean luminescence values of seven (C115Y) or eight independent experiments performed in pentuplicate. d The proportion of luminescence from c that emanated from extracellular protein (as defined by the reduction in luminescence after treatment with 60 μM NanoLuc extracellular inhibitor). Data are mean ± SEM generated from the mean luminescence values of five (C115Y) or six independent experiments performed in triplicate. e The BRET ratio generated from HaloTag-618 labelled cells expressing NL tagged wildtype or C115Y IL23R with HT-IL12Rβ1 or unlabelled IL12Rβ1. […] Statistical significance of differences in mean values shown in c–e were measured using a 2-sided, non-paired t test with ** indicating a p value of <0.005 and *** indicating a p value of <0.0005. […]

[2] = tested on: STAT3 phosphorylation (Tyr705), C115Y IL23R + IL12Rβ1; assay: Phospho-STAT3 AlphaLISA Surefire Ultra assay, C115Y IL23R; assay type: cell-based, human; details: for Mean, phospho-STAT3 signal (Figure 6 panel b): 5 nM IL-23; for Individual experimental means, phospho-STAT3 signal (Figure 6 panel b): IL-23 (5nM)
From the text: as §1
Data are mean ± SEM from five or six (untagged) or three (NanoLuc tagged) independent experiments conducted in triplicate. For the IL23R + IL12Rβ1 data set, one outlier (11108.7) was detected using the Grubbs test (with alpha = 0.001) and removed from the statistical analysis. Statistical significance of the C115Y mutation on the alphaLISA data was assessed using a 2-way ANOVA with Tukey’s multiple comparison test. ***p < 0.001. The p value for the comparison of NL tagged construct response was 0.0001 and the p value for the comparison of untagged receptor was 0.951. c Luminescence signal measured when IL12Rβ1 was expressed with either NL-IL23R or the C115Y mutant. Data are mean ± SEM generated from the mean luminescence values of seven (C115Y) or eight independent experiments performed in pentuplicate. d The proportion of luminescence from c that emanated from extracellular protein (as defined by the reduction in luminescence after treatment with 60 μM NanoLuc extracellular inhibitor). Data are mean ± SEM generated from the mean luminescence values of five (C115Y) or six independent experiments performed in triplicate. e The BRET ratio generated from HaloTag-618 labelled cells expressing NL tagged wildtype or C115Y IL23R with HT-IL12Rβ1 or unlabelled IL12Rβ1. Data are mean ± SEM generated from the mean BRET values of three independent experiments performed in pentuplicate. Statistical significance of differences in mean values shown in c–e were measured using a 2-sided, non-paired t test with ** indicating a p value of <0.005 and *** indicating a p value of <0.0005. The p values for the results shown in c, d and e were p = 0.148, 0.0005 and 0.0013 respectively. Source data are provided as a Source Data file.
Phosphorylation of STAT3 was measured using an AlphaLISA Surefire Ultra assay as previously described. Briefly, transfected HEK293T cells were plated into a poly-D-lysine coated 96 well tissue culture microplate and then incubated overnight. The following day media was replaced with serum free DMEM and the cells incubated for 3 h. […] An AlphaLISA SureFire Ultra assay kit (Perkin Elmer #ALSU-PST3) was then used to measure STAT3 phosphorylation at residue Tyr705. Assays were performed according to the manufacturers’ instructions.

[3] = target: T1, NL-IL23R and IL12Rβ1 (IL-23 receptor) on HEK293T cells (Homo sapiens, UniProt P42701+Q5VWK5); assay: P630-TMR NanoBRET competition assay; assay type: binding; details: for Displacement of 75 nM P630-TMR (Mean): Fig. 5a
T1 construct: expressed in transfected cells; host or cells: HEK293T (ATCC CRL-3216), transient transfection
T1 sequence (Q5VWK5 24-629, other chains not shown): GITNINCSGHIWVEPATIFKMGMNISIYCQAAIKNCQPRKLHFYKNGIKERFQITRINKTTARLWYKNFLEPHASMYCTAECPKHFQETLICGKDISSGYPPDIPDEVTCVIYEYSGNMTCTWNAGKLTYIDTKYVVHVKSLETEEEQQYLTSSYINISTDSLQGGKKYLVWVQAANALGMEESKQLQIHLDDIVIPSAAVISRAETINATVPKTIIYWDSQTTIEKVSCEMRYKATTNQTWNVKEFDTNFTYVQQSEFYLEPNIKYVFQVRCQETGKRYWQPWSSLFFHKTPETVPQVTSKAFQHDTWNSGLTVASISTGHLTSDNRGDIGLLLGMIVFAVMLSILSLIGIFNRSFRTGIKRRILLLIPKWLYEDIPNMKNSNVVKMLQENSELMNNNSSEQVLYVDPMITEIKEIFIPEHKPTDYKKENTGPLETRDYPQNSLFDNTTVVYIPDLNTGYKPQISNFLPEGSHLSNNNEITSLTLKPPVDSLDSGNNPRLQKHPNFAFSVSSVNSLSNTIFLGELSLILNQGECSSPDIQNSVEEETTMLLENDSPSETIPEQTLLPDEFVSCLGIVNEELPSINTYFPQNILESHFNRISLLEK
Description: (§2) Transient transfections for experiments outlined in Fig. 6 were conducted by seeding 100 μL of 2 × 10^5 cells/ml concentrated HEK293T cells into poly-D-lysine (PDL) coated white 96 well clear bottom assay microplates (Greiner) and incubating overnight. The following day transfection mixes were made up that contained a 4:1 ratio of IL23R to IL12Rβ1 constructs to a total concentration of 100 ng per well with a 0.3 μL per well of FuGENE HD transfection reagent (Promega) in OptiMEM (Gibco). These mixtures were incubated for 10 min before being added to the plate at 5 μL per well. The cells were then incubated overnight to allow expression. For all other experiments 2 mL containing 4 × 10^5 cells were seeded into 6 well plates and incubated 5 h before being transiently transfected with 100 μL per well of a transfection mix containing 2 μg of DNA and 6 μL of FuGENE HD. These cells were then incubated overnight before being re-suspended the following day and seeded into PDL coated white assay microplates at 100 μL containing 3 × 10^4 transfected cells. Cells were then incubated overnight before the experiment. Estimates of total expression levels for the different NL-constructs were made by comparing the luminescence levels achieved to that of a NanoLuciferase standard curve measured under the same conditions (Supplementary Fig. 1).
Media was removed from white 96-well microplates containing transfected cells and replaced with fluoroprobe in the presence or absence of antagonist in 50 μL Hanks Balanced Salt Solution (HBSS) with 1 mg/mL BSA (Merck). After a 1-hour incubation at 37 °C without CO2, 5 μL of HBSS containing 77 μM furimizine was added to each well (final concentration 7 μM), the plate incubated for 5-minutes and the BRET signal measured using a PheraStar FS plate reader (BMG Labtech; data acquisition software version 5.41; MARS analysis software version 3.32) with a 450 ± 30 nm and >550 nm long pass filters.
(§3) Antagonist competition data were fit with the equation:4 Y=Bmin+Bmax−Bmin/1+10^(LogXC50−[A])C Where ‘Bmax’ is the maximum BRET signal, ‘Bmin’ is the minimum BRET signal, ‘LogXC50’ is the log of the 50% inhibiting concentration of antagonist, ‘[A]’ is the concentration of antagonist and ‘C’ is the Hill slope.

[4] = target: T1, NL-IL23R and IL12Rβ1 (IL-23 receptor) on HEK293T cells; assay: IL23-TMR NanoBRET competition assay; assay type: binding; design: Inhibition of IL23-TMR binding (Mean): unit not given here; details: for Inhibition of IL23-TMR binding (Mean): 300 pM IL23-TMR
Description: Schematic created with Biorender.com. IL23R is shown in orange, IL12Rβ1 in purple, IL23p19 in blue, IL12p40 in green and the presence of a TAMRA fluorophore by a pink star. […] In b and c, data are mean ± SEM from 5 independent experiments conducted in either duplicate or triplicate. Details on absolute number of data points included for each concentration are provided in the associated Source Data file.
as §2
Media was removed from white 96-well microplates containing transfected cells and replaced with fluoroprobe in the presence or absence of antagonist in 50 μL Hanks Balanced Salt Solution (HBSS) with 1 mg/mL BSA (Merck).
as §3

“IL-23: heterodimeric cytokine, disulphide linked complex of IL12p40 and IL23p19” was tested, and the “Mean, phospho-STAT3 signal (Figure 6 panel b)” value (“Mean, phospho-STAT3 signal” below) ([1]; 5 nM IL-23, transfection NL-IL23R + IL12Rβ1, N 3) was 5562.78, the “Individual experimental means, phospho-STAT3 signal (Figure 6 panel b)” value (“Individual experimental means” below) ([1]; transfection IL23R + IL12Rβ1) was 2394 and 1760.67 and 1431.33 and 2064.67 and 2014 and the “Individual experimental means” value ([1]; transfection NL-IL23R + IL12Rβ1) was 2330.67 and 6586.67 and 7771. For the same substance, the “Mean, phospho-STAT3 signal” value ([2]; transfection IL23R (C115Y) + IL12Rβ1, N 6) was 1388.06, the “Mean, phospho-STAT3 signal” value ([2]; transfection NL-IL23R (C115Y) + IL12Rβ1, N 3) was 1262.44 and the “Individual experimental means” value ([2]; transfection IL23R (C115Y) + IL12Rβ1) was 1279.33 and 1494.67 and 1589.67 and 1247.67 and 1140 and 1577. The “Individual experimental means” value ([2]; transfection NL-IL23R (C115Y) + IL12Rβ1) was 760 and 1260.33 and 1767.

“TEEEQQLY [octapeptide reported to be a negative allosteric modulator (NAM) of the IL-23 receptor]” was tested, and the “Displacement of 75 nM P630-TMR (Mean)” value ([3]; [TEEEQQLY] -4.09691 logM) was -0.7672, the “Displacement of 75 nM P630-TMR (Mean)” value ([3]; [TEEEQQLY] -4.79588 logM) was 3.824 and the “Displacement of 75 nM P630-TMR (Mean)” value ([3]; [TEEEQQLY] -5.49485 logM) was 1.157. For the same substance, the “Displacement of 75 nM P630-TMR (Mean)” value ([3]; [TEEEQQLY] -6.19382 logM) was -2.412, the “Displacement of 75 nM P630-TMR (Mean)” value ([3]; [TEEEQQLY] -6.89279 logM) was -1.937 and the “Displacement of 75 nM P630-TMR (Mean)” value ([3]; [TEEEQQLY] -7.59176 logM) was -4.432. The “Displacement of 75 nM P630-TMR (Mean)” value ([3]; [TEEEQQLY] -8.29073 logM) was -0.4835, the “Displacement of 75 nM P630-TMR (Mean)” value ([3]; [TEEEQQLY] -8.9897 logM) was -1.857 and the “Displacement of P630-TMR” value ([3]; NL-IL23R and IL12Rβ1) was “did not displace P630-TMR; also recorded: Did not displace labelled probe”. For the same substance, the “Inhibition of IL23-TMR binding (Mean)” value ([4]; [TEEEQQLY] -4.56864 logM) was 13.433, the “Inhibition of IL23-TMR binding (Mean)” value ([4]; [TEEEQQLY] -5.04576 logM) was 6.927 and the “Inhibition of IL23-TMR binding (Mean)” value ([4]; [TEEEQQLY] -5.52288 logM) was 9.9603. The “Inhibition of IL23-TMR binding (Mean)” value ([4]; [TEEEQQLY] -6 logM) was 11.7979, the “Inhibition of IL23-TMR binding (Mean)” value ([4]; [TEEEQQLY] -6.47712 logM) was 6.708 and the “Inhibition of IL23-TMR binding (Mean)” value ([4]; [TEEEQQLY] -6.95424 logM) was 2.6729. The “Inhibition of IL23-TMR binding (Mean)” value ([4]; [TEEEQQLY] -7.43136 logM) was 2.475, the “Inhibition of IL23-TMR binding (Mean)” value ([4]; [TEEEQQLY] -7.90849 logM) was 7.532 and the “Displacement of IL23-TMR” value ([4]; NL-IL23R and IL12Rβ1) was “not to displace IL23-TMR; also recorded: Did not displace labelled probe”.

Source: PMC10199020 (Nature Communications, 2023)
